{
  "source": "patent US20260231954A1",
  "about": "“PESTICIDAL ENZYMES FOR USE ON NEMATODES, INSECTS, AND MOLLUSKS” (priority 2023, published 2026)",
  "molecules": {"B1": {"name": "Esterase B (SEQ ID NO: 89): Bacillus subtilis Esterase (EstB without signal sequence) (protein, listed as Bacillus subtilis)", "chain": "ESVHNPVVLVHGISGASYNFFAIKNYLISQGWQSNKLYAIDFYDKTGNNLNNGPQLASYVDRVLKETGAKKVDIVAHSMGGANTLYYIKYLGGGNKIQNVVTLGGANGLVSSTALPGTDPNQKILYTSIYSLNDQIVINSLSRLQGARNIQLYGIGHIGLLSNSQVNGYIKEGLNGGGLNTN", "modifications": "Esterase (EstB H191 without signal sequence)"}, "B2": {"name": "Chitinase 19F (SEQ ID NO: 182): Streptomyces coelicolor Chitinase F (Chi19F) (protein)", "chain": "ASCSSYHAWSADANYNTGDIVRYTDGKAYIAEHANPGYDPLISTWYWDPYACDGGSQTPVGNFVVSEAQFNQMFPGRNSFYTYSGLTAALSAYPGFANTGSDTTKKQEAAAFLANVSHETGGLVYIVEQNTANYPHYCDWNQPYGCPAGQAAYYGRGPIQLSWNFNYKAAGDALGIDLLGNPWLVQNDAAVAWKTGLWYWNTQSGPGTMTPHNAMVNGAGFGQTIRSINGSLECDGKNPAQVQSRVTKYQQFAQILGVSPGGNLYC", "modifications": "Chitinase F (Chi19F); Streptomyces coelicolor"}},
  "key": {"[1]": {"tested_on": "soybean cyst nematode (SCN)", "assay": "SCN reproduction after application of enzyme or recombinant strain to soil", "assay_type": "in vivo, Heterodera glycines", "details": "Table 34; for % Comparison to Control (figure in parentheses): change vs water control; for % Comparison to Control: first figure, water control = 100%; for Average cysts per g of root tissue: free enzyme 0.5 mL/plant to soil, soybean 2830E3, 3 weeks", "procedure": "To determine the efficacy of nematicidal enzymes applied to soil, a controlled environment trial was performed with 7-day old soybean plants (variety 2830E3) grown in pots. Enzymes were produced as described in Example 2. Prior to inoculation, 0.5 mL of neutral protease (SEQ ID NO: 127), esterase B (SEQ ID NO: 89), or chitinase 19F (SEQ ID NO: 182) free enzyme solution was applied to the soil around the base of each plant, or 0.5 mL of water was applied for the control (30 plants per treatment). Then, hatched SCN juveniles were applied to the soil around each plant as described in Example 2, and three weeks later, cysts per gram of root tissue was determined as described in Example 2. The data was analyzed as in Example 2 and appears in Tables 33 and 34.\nTo determine the efficacy of recombinant strains applied to soil, a controlled environment trial was performed as described in Example 18 above (Reduction of soybean cyst nematode reproduction by enzymes applied to soil), with the exception that a recombinant strain expressing neutral protease (SEQ ID NO: 127) was applied instead of a free enzyme solution. The recombinant strain was produced as in Example 3, and the treatment applied to soil as a whole cell broth."}, "[2]": {"tested_on": "Fall armyworm (Spodoptera frugiperda)", "assay": "Diet-surface overlay (DSO) bioassay on Fall armyworm", "assay_type": "in vivo", "details": "for Larva Stage I / Larva Stage II / Larva Stage III / Larva Stage IV / Dead Larva: Fall armyworm", "procedure": "Diet-surface overlay bioassays are conducted with artificial diet mixes without antibiotics in 1.5 cm^2 cell bioassay trays(s). Artificial diets are commercially available from Southland Products Inc. Diets were prepared by dispersing 0.5 mL of molten diet to each 1.5 cm^2 cell. After solidification, 0.1 mL enzyme treatments were dispersed on top of diet in each cell and the tray was gently rocked in an orbital shaker to spread the liquid uniformly over the diet surface. Trays were placed under clean airflow until the surface of each cell was uniformly dried. One or two 16-cell sections were used per treatment (the number in larvae treated was 16 or 32).\nOne healthy first instar larva was placed into each treatment cell, each 16-cell section was covered with a re-sealable lid and incubated at 27° C. and light-dark period of 16:8 hrs. After 7 days, and according to the species, the number of individuals in the following developmental categories was recorded.\nNegative/untreated controls were treated with filtered water and positive controls were treated with lethal doses of Bacillus thuringiensis subsp. Kurstaki (Btk) spores at 1000 ppm."}, "[3]": {"tested_on": "soybean cyst nematode (SCN, Heterodera glycines)", "assay": "Soybean cyst nematode reproduction on soybean after seed treatment, controlled environment (cysts per gram of root tissue or per plant)", "assay_type": "in vivo"}, "[4]": {"tested_on": "SCN juveniles (SCN HG type 1.2.5.7, race 2)", "assay": "In-vitro plate assay of SCN juvenile viability (difference in percent death)", "assay_type": "in vivo", "procedure": "(§1) SCN eggs were obtained from SCN HG type 1.2.5.7, race 2. Eggs were rinsed 4 times with sterile water. Eggs were transferred to a 6-well plate and resuspended in 5 mL of 3 mM ZnSO4. The plate was sealed with parafilm, covered with aluminum foil to prevent light from entering the plate, and placed in a plate growth chamber at 25° C. and 80% relative humidity. After 6-7 days of incubation, an estimate of hatched SCN juveniles was obtained from the well to determine the overall number of juveniles per 10 μL. The concentration of the hatchery solution was adjusted until it consisted of 20-30 juveniles per 10 μL.\nPotato dextrose agar media containing chloramphenicol and chlortetracycline was prepared and added to sterile twenty-four-well cell culture plates (1 mL per well). The plates were divided according to the pre-determined N-value for each treatment (N=12-24). Each treatment being tested was added to the agar surface within each well at a rate of 40 μL per well. Without allowing the treatments to dry, 10 μL of the prepared nematode mixture was added to the agar surface within each well.\nTo quantify the treatments' effects on nematode viability, the nematodes were examined under a dissecting microscope at 20× magnification. Initial (TO) values for the number of live juveniles, number of dead juveniles and total number of juveniles were recorded immediately after preparation of each well. The plates were then wrapped in parafilm around the open edge, encased in aluminum foil, and placed in secondary containment. The secondary containment was placed in a plant growth chamber at 25° C. and 80% relative humidity. At approximately 24 hours post addition of juveniles, the plates were evaluated, and the number of live juveniles, dead juveniles and total number of juveniles were recorded (T24).\nThe difference in percent death at T0 vs T24 was calculated by subtracting the percent dead at TO [(#dead juveniles/total #juveniles)×100] from the percent dead at T24 [(#dead juveniles/#total juveniles originally present)×100]. […] If the ANOVA indicated a significant difference existed among treatments, Tukey's HSD post hoc test was used to perform a pairwise contrast between each set of treatments. Different letters denote statistically significant results at P<0.05.\nas §1, with “from” for “from SCN”, “rinsed four” for “rinsed 4”, “and 80-90%” for “and 80%”, “from each” for “from the”\nPotato dextrose agar media containing chloramphenicol and chlortetracycline was prepared and added to sterile twenty-four-well cell culture plates (1 mL per well). The plates were divided according to the pre-determined N-value for each treatment (N=24). […]\nTo quantify the treatments' effects on nematode viability, the nematodes were examined under a dissecting microscope at 20× magnification. Initial (TO) values for the number of live juveniles, number of dead juveniles and total number of juveniles were recorded. […]"}, "[5]": {"details": "Table 50, esterases, number of individuals of n = 32"}, "[6]": {"details": "Table 11, free enzyme seed treatment 2 fl. oz. per unit of seed (ILEVO 0.15 mg active ingredient per seed), soybean P18A98X, 3 weeks after inoculation"}, "[7]": {"details": "Table 48, chitinases, number of individuals of n = 32, DSO bioassay"}},
  "data": [
    {"molecule": "B1", "values": [
      {"measurement": "% Comparison to Control (figure in parentheses)", "setting": "[1]", "value": "−16", "unit": "%"},
      {"measurement": "% Comparison to Control", "setting": "[1]", "value": "reduced SCN reproduction"},
      {"measurement": "% Comparison to Control", "setting": "[1]; listed as Esterase B free enzyme (SEQ ID NO: 89)", "value": 84, "unit": "%"},
      {"measurement": "Average cysts per g of root tissue", "setting": "[1]", "value": "117.3 cysts per g of root tissue"},
      {"measurement": "Larva Stage I", "setting": "[2]; [5]", "value": 3},
      {"measurement": "Larva Stage II", "setting": "[2]; [5]", "value": 4},
      {"measurement": "Larva Stage III", "setting": "[2]; [5]", "value": 14},
      {"measurement": "Larva Stage IV", "setting": "[2]; [5]", "value": 10},
      {"measurement": "Dead Larva", "setting": "[2]; Table 50, esterases, number of individuals of n = 32, DSO bioassay, dose per treatment in U/mL Diet", "value": 1},
      {"measurement": "individuals with delayed development", "setting": "[2]; text to Table 50, esterases, n = 32", "value": 67, "unit": "%"},
      {"measurement": "Average cysts per g of root tissue", "setting": "[3]; [6]", "value": "19.6 cysts per g of root tissue"},
      {"measurement": "Average cysts per g of root tissue", "setting": "[3]; Table 15, seed treated with whole cell broth, soybean P18A98X", "value": "56.3 cysts per g of root tissue"},
      {"measurement": "Average cysts per g of root tissue", "setting": "[3]; Table 25, dried formulation 0.04 units of enzyme activity per seed, liquid 2 fl oz per unit of seed, soybean 3230E3", "value": "233.2 cysts per g of root tissue"},
      {"measurement": "Difference in Percent Death of Nematodes for 0 to 24 Hours", "setting": "[4]; Table 28, 40 μL of each treatment per well, fertilizer diluted to 3% v/v", "value": 3, "unit": "%"},
      {"measurement": "difference in percent death over twenty-four hours relative to the combination treatment", "setting": "[4]; single treatment vs Esterase B + 10-34-0 fertilizer combination", "value": "−7", "unit": "%"}
    ]},
    {"molecule": "B2", "values": [
      {"measurement": "% Comparison to Control (figure in parentheses)", "setting": "[1]", "value": "−32", "unit": "%"},
      {"measurement": "% Comparison to Control", "setting": "[1]", "value": "reduced SCN reproduction"},
      {"measurement": "% Comparison to Control", "setting": "[1]; listed as Chitinase 19F free enzyme (SEQ ID NO: 182)", "value": 68, "unit": "%"},
      {"measurement": "Average cysts per g of root tissue", "setting": "[1]", "value": "95.6 cysts per g of root tissue"},
      {"measurement": "Larva Stage I", "setting": "[2]; [7]", "value": 4},
      {"measurement": "Larva Stage II", "setting": "[2]; [7]", "value": 14},
      {"measurement": "Larva Stage III", "setting": "[2]; [7]", "value": 5},
      {"measurement": "Larva Stage IV", "setting": "[2]; [7]", "value": 6},
      {"measurement": "Dead Larva", "setting": "[2]; Table 48, chitinases, number of individuals of n = 32, DSO bioassay, dose per treatment in mU/mL Diet", "value": 3},
      {"measurement": "Average cysts per g of root tissue", "setting": "[3]; [6]", "value": "48.8 cysts per g of root tissue"},
      {"measurement": "Average cysts per g of root tissue", "setting": "[3]; Table 12, free enzyme seed treatment 2 fl. oz. per unit of seed (ILEVO 0.15 mg active ingredient per seed), soybean P18A98X", "value": "296.9 cysts per g of root tissue"},
      {"measurement": "Difference in Percent Death of Nematodes for 0 to 24 Hours", "setting": "[4]; Table 32, 40 μL per well of each treatment, water only 4%", "value": 24, "unit": "%"}
    ]}
  ]
}
